Source: patent US20200239570A1 (CRESCENDO BIOLOGICS, published 2020)

Key:
[1] = target: T1, human PD-1 expressed on cells (CHO human PD-1 cells) (human, UniProt Q15116 21-288); assay: FMAT epitope competition on CHO human PD-1 cells; competitor 2 nM 1.1-Strep tagged protein
T1 construct: CHO cells in the FMAT assays; Jurkat reporter cells in the reporter assay; primary CD4+ T cells in the mixed lymphocyte reaction; also called CHO TREX human PD1 cell line; CHO PD-1
Procedure: (§1) For the epitope competition assay reagents were prepared in FMAT assay buffer. […] Plates were incubated for a minimum of 1.5 hours at room temperature then fluorescence measured in the FL2 (502 nm-537 nm) and FL5 (677-800 nm) channels on the Mirrorball plate reader (TTP) following excitation at 488 nm and 640 nm. Data was expressed as a % of the total binding control (i.e. % control) after subtraction of the background signal determined from the non-specific binding control wells.

[2] = target: T2, recombinant human PD-1 Fc chimera (human, UniProt Q15116 25-167); assay: SPR (Biacore T200), PD-1-huFc amine-coupled to CM5, single cycle kinetics, 1:1 fit
T2 construct: Bought (R&D 1086-PD); Labelled with europium cryptate in the PD-L2 HTRF assay; also called human PD-1 (R&D Systems cat no. 1086-PD); human PD-1-huFc; not shown: human Fc of the bought chimera
Procedure: Binding kinetics of certain VH single domain antibodies binding to human PD-1-huFc were measured by surface plasmon resonance (SPR) technology using Biacore T200 instrument (GE Healthcare). Recombinant human PD-1-huFc was immobilized by standard amine coupling to CM5 sensorschip (GE Healthcare) using 0.01 mg/ml solution of antigen in 10 mM sodium acetate at pH 5.5. For the reference flow cell, a blank immobilisation was carried out. Single cycle kinetics assays were used to study the interaction, a five point, three-fold dilution series of each Humabody® was made with a top concentration of 30 nM. The binding kinetics were followed by flowing the Humabody® over the chip surface in HBS EP+ buffer at a flow rate of 30 μl/min. The contact time for each of the association steps was 180 seconds and the dissociation step was varied between 1200-3600 seconds. The data was fitted to a 1:1 binding model after double reference subtraction using the Biacore T200 Evaluation software.

[3] = target: T2, recombinant human PD-1 Fc chimera; assay: BLI (Octet), PD-1-huFc on biosensor, 1:1 fit
Procedure: Binding kinetics of clones to human PD-1-huFc were measured in real-time bio-layer interferometer based biosensor Octet (ForteBio). Recombinant human PD-1-huFc was either immobilized by standard amine coupling to amine reactive biosensors in 10 mM sodium acetate at pH 5.0 or capture by protein G biosensors (ForteBio). All the binding studies were performed in HBS-ET Octet kinetics buffer. Biosensors were always washed in Octet kinetics buffer in between different steps. A seven point, two-fold dilution series of each Humabody® VH was made with a top concentration in range 100-30 nM. The contact time for each of the association steps was varied between 180-300 seconds and the dissociation step was varied between 400-600 seconds. Kinetic association (kₐ) and dissociation (kd) rate constants were determined by processing and fitting the data to a 1:1 binding model using ForteBio Analysis software.

[4] = target: T1, human PD-1 expressed on cells (CHO …); assay: FMAT epitope competition on CHO human PD-1 cells; competitor 2 nM 2.1-Strep tagged protein
Procedure: as §1

T2 sequence (Q15116 25-167, change not shown): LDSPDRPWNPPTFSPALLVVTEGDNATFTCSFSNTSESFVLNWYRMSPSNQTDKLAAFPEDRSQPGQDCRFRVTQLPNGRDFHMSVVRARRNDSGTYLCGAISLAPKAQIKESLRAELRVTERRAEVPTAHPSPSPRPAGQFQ
T1 sequence (Q15116 21-288): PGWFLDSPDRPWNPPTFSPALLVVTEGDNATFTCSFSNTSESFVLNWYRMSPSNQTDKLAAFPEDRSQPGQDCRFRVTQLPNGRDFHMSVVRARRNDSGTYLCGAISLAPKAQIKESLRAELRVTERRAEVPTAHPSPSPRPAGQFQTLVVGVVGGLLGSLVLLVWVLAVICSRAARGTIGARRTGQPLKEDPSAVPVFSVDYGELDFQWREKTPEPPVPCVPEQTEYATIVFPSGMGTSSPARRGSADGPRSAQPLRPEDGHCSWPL

IC50 [1]	Kd [2]	koff [2]	kon [2]	Kd [3]	koff [3]	kon [3]	IC50 [4]	Binder
8 nM	7.94 nM	0.00211 s⁻¹	265000 M⁻¹ s⁻¹					Humabody VH 1.26 (VHH, human VH single domain antibody) VHH: EVQLVESGGGLVQPGRSLRLSCAASGFTFDDYAMHWVRQAPGKDLEWVSGISWNGGSMGYADSVKGRFTISRDNAKNSLYLQMNSLRAEDTALYYCVREKGPGLTGSTADYYGLDAWGQGTMVTVSS
	10.2 nM	0.00254 s⁻¹	248000 M⁻¹ s⁻¹					Humabody VH 1.47 (VHH, human VH single domain antibody) VHH: EVQLVESGGGLVQPGRSLRLSCAASGFTFDDYAFHWVRQAPGKDLEWVSGISWNSGSYGYADSVKGRFTISRDNAKNSLYLQMNSLRAEDTALYYCVREKGPGLTGSTADYYGLDAWGQGTMVTVSS
	5.98 nM	0.00145 s⁻¹	243000 M⁻¹ s⁻¹					Humabody VH 1.40 (VHH, human VH single domain antibody) VHH: EVQLVESGGGLVQPGRSLRLSCAASGFTFDDYALHWVRQAPGKDLEWVSGISWNGGSQGYADSVKGRFTISRDNAKNSLYLQMNSLRAEDTALYYCVREKGPGLTGSTADYYGLDAWGQGTMVTVSS
2.5 nM				2 nM	0.00074 s⁻¹	370000 M⁻¹ s⁻¹		Humabody VH 1.33 (VHH, human VH single domain antibody) VHH: EVQLVESGGGLVQPGRSLRLSCAASGFTFDDYAMHWVRQAPGKDLEWVSGISWNGGSYGYADSVKGRFTISRDNAKNSLYLQMNSLRAEDTALYYCVREKGPGLTGSTADYYGLDAWGQGTMVTVSS
6.5 nM				3.6 nM	0.0007 s⁻¹	190000 M⁻¹ s⁻¹		Humabody VH 1.34 (VHH, human VH single domain antibody) VHH: EVQLVESGGGLVQPGRSLRLSCAASGFTFDDYAMHWVRQAPGKDLEWVSGISWNGGSQGYADSVKGRFTISRDNAKNSLYLQMNSLRAEDTALYYCVREKGPGLTGSTADYYGLDAWGQGTMVTVSS
	14.3 nM	0.00229 s⁻¹	160000 M⁻¹ s⁻¹					Humabody VH 1.50 (VHH, human VH single domain antibody) VHH: EVQLVESGGGLVQPGRSLRLSCAASGFTFDDYAFHWVRQAPGKDLEWVSGISWNAGSQGYADSVKGRFTISRDNAKNSLYLQMNSLRAEDTALYYCVREKGPGLTGSTADYYGLDAWGQGTMVTVSS
	9.1 nM	0.00204 s⁻¹	224000 M⁻¹ s⁻¹					Humabody VH 1.44 (VHH, human VH single domain antibody) VHH: EVQLVESGGGLVQPGRSLRLSCAASGFTFDDYALHWVRQAPGKDLEWVSGISWNSGSYGYADSVKGRFTISRDNAKNSLYLQMNSLRAEDTALYYCVREKGPGLTGSTADYYGLDAWGQGTMVTVSS
	16.2 nM	0.00291 s⁻¹	180000 M⁻¹ s⁻¹					Humabody VH 1.48 (VHH, human VH single domain antibody) VHH: EVQLVESGGGLVQPGRSLRLSCAASGFTFDDYALHWVRQAPGKDLEWVSGISWNSGSQGYADSVKGRFTISRDNAKNSLYLQMNSLRAEDTALYYCVREKGPGLTGSTADYYGLDAWGQGTMVTVSS
7.5 nM				5.5 nM	0.0013 s⁻¹	240000 M⁻¹ s⁻¹		Humabody VH 1.37 (VHH, human VH single domain antibody) VHH: EVQLVESGGGLVQPGRSLRLSCAASGFTFDDYAFHWVRQAPGKDLEWVSGISWNGGSMGYADSVKGRFTISRDNAKNSLYLQMNSLRAEDTALYYCVREKGPGLTGSTADYYGLDAWGQGTMVTVSS
				25 nM	0.035 s⁻¹	1.3e+06 M⁻¹ s⁻¹		Humabody VH 2.13 (VHH, human VH single domain antibody) VHH: EVQLVESGGGVVRPGGSLRLSCAASGFTFDDYAMSWVRQAPGKGLEWVSGITWNRGSTGYADSVKGRFTISRDNAKNSLYLQMNSLRAEDTALYYCVRDKYSYAWSYDDFDIWGQGTMVTVSS
				3.4 nM	0.0015 s⁻¹	450000 M⁻¹ s⁻¹		Humabody VH 2.37 (VHH, human VH single domain antibody) VHH: EVQLVESGGGVVRPGGSLRLSCAASGFTFDDYALSWVRQAPGKGLEWVSGITWNGGSTGYADSVKDRFTISRDNAKNSLYLQMNSLRAEDTALYYCVRDKYSYAWSYDGFDIWGQGTMVTVSS
				1.6 nM	0.00059 s⁻¹	370000 M⁻¹ s⁻¹		Humabody VH 2.39 (VHH, human VH single domain antibody) VHH: EVQLVESGGGVVRPGGSLRLSCAASGFTFDDYAESWVRQAPGKGLEWVSGITWNGGSTGYADSVKDRFTISRDNAKNSLYLQMNSLRAEDTALYYCVRDKYSYAWSYDGFDIWGQGTMVTVSS
7 nM				16 nM	0.017 s⁻¹	1e+06 M⁻¹ s⁻¹	14 nM	Humabody VH 2.53 (VHH, human VH single domain antibody) VHH: EVQLVESGGGVVRPGGSLRLSCAASGFTFDDYAMSWVRQAPGKGLEWVSGITWNGGSTGYADSVKDRFTISRDNAKNSLYLQMNSLRAEDTALYYCVRDKYSYAWSYDDFDIWGQGTMVTVSS
6.5 nM				3.3 nM	0.0022 s⁻¹	670000 M⁻¹ s⁻¹	21 nM	Humabody VH 2.52 (VHH, human VH single domain antibody) VHH: EVQLVESGGGVVRPGGSLRLSCAASGFTFDDYAMSWVRQAPGKGLEWVSGITWNGGSTGYADSVKDRFTISRDNAKNSLYLQMNSLRAEDTALYYCVRDKYSYAWSYDVFDIWGQGTMVTVSS
9 nM							13 nM	Humabody VH 2.27 (VHH, human VH single domain antibody) VHH: EVQLVESGGGVVRPGGSLRLSCAASGFTFDDYAMSWVRQAPGKGLEWVSGITWNAGSTGYADSVKDRFTISRDNAKNSLYLQMNSLRAEDTALYYCVRDKYSYAWSYDDFDIWGQGTMVTVSS
